The text below walks through data of the supplement of paper PMC12042874.

± gives the uncertainty stated by the source.

The series in a line: amyloid nucleation score (Sup35N fusion, yeast selection) (log enrichment); library NNK3; higher = more nucleation; inactive = no reads after selection. The method, boiled down: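 The nucleation score is the DiMSum log enrichment of output over input reads, centred on the mode score of non-aggregating sequences. Only sequences with 100 or more input reads were scored, using Illumina sequencing of input and output plasmid inserts. Psi-negative yeast expressing Sup35N fused to peptides of 20 random codons were induced 24 hours with 100 μM copper sulfate and grown 7 days at 30°C on medium lacking adenine and uracil.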
With YFSVLSESVSHSDVFRS, the amyloid nucleation score entry was “inactive”.
To NRRGSSVVRI belongs “inactive”; to FVLIIYLLACSEMLFVFKEV, “inactive”.
On to GAHWNASSHICGRKD, for which the amyloid nucleation score entry was “inactive”.
For ASCAWNGWTLIFLFYRCYFQ, the amyloid nucleation score entry was “inactive”.
Consider SSTNSYTSSLVSVSLVGDGA, for which the amyloid nucleation score entry is “inactive”.
Turning to FLGGRTLTSLPE, the amyloid nucleation score result is “inactive”.
With ANCCYPDLSCYVLYCGSSCL, the amyloid nucleation score was determined as 2.41 ± 0.076.
Regarding DFLVVYNAMCDKELVDTGEI, the amyloid nucleation score result is “inactive”.
As for KRLQWMYYL, the amyloid nucleation score entry is “inactive”.
The result for CRLVAEYGLQVKPMQR reads “inactive”.
IGTSAWLEKRASLLVCMKKA: the amyloid nucleation score result was “inactive”.
To RFWRCWAMINR belongs “inactive”.
The result for VSFEYTGEYLCSNVRATDLL reads 0.366 ± 0.69; that for RSMSSGAICSMSY, “inactive”; that for FQYKVSFPDRRASQKRWPLP, “inactive”.
SHPYLT: the amyloid nucleation score was found to be 0.071 ± 0.35.
With KYWDPQFP, the amyloid nucleation score result is “inactive”.
Regarding LRFRAQNTYEGPYTVGPVWS, the amyloid nucleation score result is “inactive”.
To MCSRCLFHCGLVVCRVVVPA belongs “inactive”; to NCYDSW, “inactive”.
Turning to YPLYVHRCLIMTFMLSLWPR, the amyloid nucleation score result was “inactive”.
Consider LPAHTL, for which the amyloid nucleation score result was “inactive”.
With MGRGWRHGCWLGRILRFWYD, the amyloid nucleation score entry was “inactive”.
Substance ENSSLFFLRDCELWWNVRTR yielded an amyloid nucleation score of 1.59 ± 0.094.
Turning to TWLMFIFNSRYL, the amyloid nucleation score came out at 1.51 ± 0.074.
YWIEAPIFYPLFTAIVKQAM had an amyloid nucleation score of 0.294 ± 0.49.
For the substance DRRKAEFILTMGPEWYQQLN, the amyloid nucleation score entry is “inactive”.
As for QEYEGLRDSVKTVEGYVWLM, the amyloid nucleation score entry is “inactive”.
For the substance CDVPAKYLGKICDSYALSIF, the amyloid nucleation score result was “inactive”.
For the substance FFWLMDAPHPRRHVDERQLI, the amyloid nucleation score result is “inactive”.
IVLNKSILYADTCPLFPTMR had an amyloid nucleation score of 0.655 ± 0.11.
In the case of KIYWGATLNQTSYRVAVCLT, the amyloid nucleation score result was “inactive”.
On to ARWTMRAMLDWSIALSDHWV, for which the amyloid nucleation score result is “inactive”.
Consider RWVNWLLYDKV, for which the amyloid nucleation score entry was “inactive”.
Take KSFRIMMLRSWMLRLLKYQL: the amyloid nucleation score entry was “inactive”.
For the substance SKCVGISLRALVYYGHSQVT, the amyloid nucleation score result is “inactive”.
For the substance SRSNQNCLPSASMNVYLSVT, the amyloid nucleation score result is “inactive”.
For the substance TWTDCERRLDIVKEMLNYIQ, the amyloid nucleation score result was “inactive”.
As for FGQDSPSVLTC, the amyloid nucleation score is -0.381 ± 0.7.
The result for TSNFCPFTVQN reads -0.477 ± 0.8.
Turning to RYDMRVVSRNQLKYWTMGRE, the amyloid nucleation score was -0.646 ± 1.1.
The result for VVYDVTVKKSLDIRFPLRIP reads “inactive”.
VVLIFWWKSQGMSMIVFVIY: the amyloid nucleation score entry is “inactive”.
With EVYDLESGVSITYMCMCVVL, the amyloid nucleation score entry was “inactive”.
For the substance SKYKVCFTRSFF, the amyloid nucleation score result is “inactive”.
AHLQVYFSSNVC: the amyloid nucleation score entry was “inactive”.
Regarding CEISLV, the amyloid nucleation score worked out at 0.767 ± 0.16.
In the case of WVWSKL, the amyloid nucleation score entry is “inactive”.
To TPTWFLRWWFTVSINNMVIW belongs “inactive”.
The result for EISTVLNLHVRRIAGRFVMK reads “inactive”; that for YNCGHLNYGIVNFLFYVWLI, “inactive”; that for VKLALRTAFVGSQVYRILRA, -0.076 ± 0.88.
To LNKLTKIVVSHKGLCFELGG belongs “inactive”; to MLGVSYCRQVVYKENSYDFR, “inactive”; to LRLNKLCEVFAPLTSVLAGT, “inactive”.
Take GWRFMLFRAQLFIWMIICFC: the amyloid nucleation score result is “inactive”.
Consider RWSNYMFDRQLY, for which the amyloid nucleation score was -1.2 ± 1.8.
The substance NVTTVFNKIPLPDSFNMRRW returned an amyloid nucleation score of 1.28 ± 0.084.
To TVRYVYTCFINFQTLVHRRM belongs -0.784 ± 0.8; to IETPSGLRKIELFMTCYYTS, 0.431 ± 0.41; to QKIVSPRSGGFASPRMRQKV, “inactive”.
Take GIGRDCNVSGALCQRAVANV: the amyloid nucleation score result is “inactive”.
The result for AANPFFTIYHLVRSYNVCRW reads “inactive”.
Take FLSEIGADTTKSYWDTIPRF: the amyloid nucleation score was -1.2 ± 2.5.
The result for EFGLRWMS reads 0.447 ± 0.34; that for RPMRDCIGHSQS, “inactive”; that for FSYCDGRLLSSNRYYSESLY, “inactive”.
WLFLLRPRAGSTHPSTHLDF returned an amyloid nucleation score of 0.823 ± 0.1.
With PDVFYILVTALWDVRNSNSF, the amyloid nucleation score entry was “inactive”.
The result for GAGCNVVAAATARSRDGDWS reads 0.212 ± 0.93; that for SWGFHEWSVACQICRYVDRP, “inactive”.
To VISVTRSYSHTYK belongs “inactive”; to WRSTRIRTSWHTDTDFLSNG, “inactive”.
Turning to KRVRGLALTQIY, the amyloid nucleation score is 0.159 ± 0.45.
EGGMTTFYFC: the amyloid nucleation score worked out at 2.13 ± 0.093.
Take NYSFWLAIYSPCRSKCYARC: the amyloid nucleation score is 1.58 ± 0.057.
For GQWDYLLTQYKNIK, the amyloid nucleation score was -1.01 ± 1.1.
Consider DFSGVSLDVITRRCLGFIGA, for which the amyloid nucleation score entry was “inactive”.
As to ALVVSTWYSPGDMDLTPLHW, the amyloid nucleation score result was “inactive”.
CYSLFSLPMKALRSISVRCW displayed an amyloid nucleation score of 1.52 ± 0.13.
In the case of FVLHNS, the amyloid nucleation score result is “inactive”.
Consider RPFSNAGYAFNHGFFV, for which the amyloid nucleation score entry was “inactive”.
Turning to IRLTVWDVNRDCR, the amyloid nucleation score result was “inactive”.
On to AVLCVCIHRLPFYFPPLLKM, for which the amyloid nucleation score entry was “inactive”.
TCCSVLLIKVSSNEGD: the amyloid nucleation score worked out at 2.6 ± 0.078.
Take TTHVILCLCNL: the amyloid nucleation score is 3.07 ± 0.073.
Consider NETPVSDAESGVLDFTSHEL, for which the amyloid nucleation score result was “inactive”.
QQVLVVQNKCEWGRHIA: the amyloid nucleation score result was “inactive”.
With SDFRTRTNIQYLQYKNNSSP, the amyloid nucleation score entry was “inactive”.
In the case of LPSVDVRKTI, the amyloid nucleation score entry is “inactive”.
Consider FMLWYSPKLFG, for which the amyloid nucleation score entry was “inactive”.
In turn, RGLVLVFVREAYRREY showed an amyloid nucleation score of 0.598 ± 0.29.
To RYYCMYSSGEIRCSVSWGVW belongs “inactive”.
In the case of FWCIGEIRCTYMWRSQCFCV, the amyloid nucleation score result was “inactive”.
To DETVMFSFKFIVKSVVVDPR belongs “inactive”; to TFRLILILRTSI, 0.898 ± 0.16.
Take LFLVYGGYIFAQRKFAFNSS: the amyloid nucleation score entry is “inactive”.
To QTIRTMKRGNRISCVPAGHS belongs “inactive”; to AMGLACGLDGSAVFGCMLTT, “inactive”.
GRIYFYLVKTDPVQERTQLF: the amyloid nucleation score result is “inactive”.
In the case of GYECLIVFFMRLLSIPVVSD, the amyloid nucleation score result was “inactive”.
For the substance SSGPIRLERMDYWHHWGATL, the amyloid nucleation score result is “inactive”.
On to CGMRNLR, for which the amyloid nucleation score result is “inactive”.
NGKWKGWSS: the amyloid nucleation score result was “inactive”.
The result for HCAMCWGILEFEISMFAMEW reads “inactive”.
To YHMVCNCDWVGVAFYVSYGR belongs 1.91 ± 0.065.
On to LYYNYRGGYVYKNRDEVTLF, for which the amyloid nucleation score entry is “inactive”.
The result for IVSYSGRNRDAHLKSS reads “inactive”; that for FIVNSLPDLNALAHMSALLY, “inactive”; that for NEVDDWFSD, “inactive”.
The result for VPTVLDRFDMMHVSEYRDGA reads “inactive”.
The result for GYNICWTPWYAVLDGVTKML reads “inactive”.
Consider LKNGLYYHHYFTFLMAYIHQ, for which the amyloid nucleation score entry is “inactive”.
On to DCLMDGDFRILGSFIHRFSE, for which the amyloid nucleation score result is “inactive”.
With INLVNTLFTIILMRSYRRTR, the amyloid nucleation score turned out to be 0.022 ± 0.31.
EGWIRVFTEFNFSS showed an amyloid nucleation score of 0.263 ± 0.46.
In turn, TNYFESFY yielded an amyloid nucleation score of -0.052 ± 1.2.
Regarding QYHNQYHMIKRLYAFRARMG, the amyloid nucleation score entry was “inactive”.
Regarding FYYDRVTLRGNTNLGDLMHG, the amyloid nucleation score was found to be 1.69 ± 0.076.
For LVEVDDASNIDCEAAYCKWY, the amyloid nucleation score entry is “inactive”.
As to RGMCV, the amyloid nucleation score entry is “inactive”.
Regarding HTLRWE, the amyloid nucleation score entry was “inactive”.
To GVFRPMWVLARVDSQNLASL belongs “inactive”; to FCFSSVEKNWLQRVMFLRVS, “inactive”; to YSLRNNFLLVFSLVSDRPIG, 1.06 ± 0.12.
For the substance VTLRCNGDMVYHYLPCGVLR, the amyloid nucleation score result is “inactive”.
Consider NSGTKQTLGYSSFRD, for which the amyloid nucleation score entry was “inactive”.
CSMLASMWTTIRYLLLLEVA returned an amyloid nucleation score of 1.49 ± 0.09.
To SRCNVYKKVVAYVLRRLTPE belongs 0.166 ± 0.66.
In turn, GSMVVEFMYYHPTPTRGAWA registered an amyloid nucleation score of 0.8 ± 0.17.
